assay: yeast display, Sf9 membrane polyspecificity reagent, FACS + sequencing; frameworks hold sequencing errors
In short: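 After 36–48 hours of galactose induction, yeast (Saccharomyces cerevisiae BJ5465) displaying a synthetic nanobody library were stained at 4 °C for 1 hour with 10% biotinylated, detergent-solubilized Sf9 membrane reagent. Streptavidin microbeads enriched the stained cells before FACS sorting into low and high (top ~1%) gates on anti-HA and streptavidin fluorescence. Each clone's polyreactivity label reflects its gate of origin.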

Sequence | polyreactivity (PSR sort gate)
QVQLVESGGGLVQAGGSLRLSCAASGFIYRKNAMGWYRQAPGKERELVATITKSGDTTYYADSVKGRFTISRDNAKNTVYLQMNSLKPEDTAVYYCAAPLYYIGSWDYYVRYIYDYWGQGTQVTVSS | low polyreactivity
QVQLVESGGGLVQAGGSLRLSCAASGFIYSSNAMGWYRQAPGKERELVAAISSSGGRTYYAVSVKGRFTISRDNAKNTVYLQMNRLKPEDTAVYYCNAYPRSRGSANDWGQGTQVPVSS | high polyreactivity
QVQLVESGGGLVQAGGSLRLSCAASGFIYTYAMGSYRQAPGKERELVAAIRWIGTRTYYADSVKGRFTISRDNAKNTVYLQMNSLKPEDTADYYCAARYYTYDGYSKYDYWGQGTQVNVSS | high polyreactivity
QVQLVESGGGLVQAGGSLRLSCAASGFLFGYSAMGWYRQAPGKERELVAAISYACRSTYYADSVKGRFTISRDNAKNTVYLQMNSLKPEDTAVYYCAKYGQSNYDWGQGTQVTVSS | high polyreactivity
QVQLVESGGGLVQAGGSLRLSCAASGFLFRYYARGWYRQAPGKERELVADISQNGDSTYYADSVKGRFTISRDTAKITVYLQMNCLNPDDTAVYYCNADNDPWPYFDGIFSVDMDYWGQGTQVTVSS | low polyreactivity
QVQLVESGGGLVQAGGSLRLSCAASGFNFIYYAMGWYRQAPGKERELVAAISRRGGSTYYADSVKGRFTISRDNAKNTVYLQMNSLKPEDTAVYYCAADYTSAILRSDYWGQGTQVTVSS | high polyreactivity
QVQLVESGGGLVQAGGSLRLSCAASGFNFNKNAMGWYIQAPGKERELVASITASGTTTYADSVKGRFTISRDNAKNTVYLQMNSLKPEDTAVYYCAVRTRIWGFYYWGQGTQVTVSS | high polyreactivity
QVQLVESGGGLVQAGGSLRLSCAASGFNFRANGMGWYRQAPGKERELVATITSGGTTNYADSVKGRFTISRDNAKNTVYLQMNSLKPEDTAVYYCDKRFGPAYFRLYDYWGQGTQVTVSS | low polyreactivity
QVQLVESGGGLVQAGGSLRLSCAASGFNFRSYAIGCYRQAPGKERELVAAITSTGGRTYYADSVKGRFTISRDNAKNTVYLQMNSLKPEETAVYYCAAGRKHYAPVHFGYWGQGTQVTVSS | high polyreactivity
QVQLVESGGGLVQAGGSLRLSCAASGFNIVRYAMGWYRHAPRKERELVATITSGTSTNYADSVKGRITISRDNAKNTVYFQMNSLKPDDTAVYYCAADHYYTGTTYNFWGQGTQVNVSS | low polyreactivity
QVQLVESGGGLVQAGGSLRLSCAASGFNLYPNAMGWYRQAPGKERELGAAITESDGITYYADSVKGRFTISRDNAKYTVYLQMNSLKPEDTAVYYCNTGFSYTYDYWGQGTQVTVSS | low polyreactivity
QVQLVESGGGLVQAGGSLRLSCAASGFSFPPYAMGWYRQAPGKERELVAAITTSGGSTYYADSVKGRFTISRDNAKNTVYLQMNSMKPEDTAVYYCAADWRYLGYTAMDYWGQGTQVTVSS | low polyreactivity
QVQLVESGGGLVQAGGSLRLSCAASGFSVYPYAMGWYRQAPGKERELVAAISSSGGSTYYADSVKGRFTISRDNAKNTVYLQMNSLKPEDTAVYYCNKRPQQYRPGYDYWGQGTQVTVSS | high polyreactivity
QVQLVESGGGLVQAGGSLRLSCAASGFTCSTYAMGWYSQAPGKERELVAVISWNGGSTYYADSVKGRFTISRDNANNTVYLQMNSLKPEDTAVYYCDARGSFKQGYWGQGTQVTVSS | high polyreactivity
QVQLVESGGGLVQAGGSLRLSCAASGFTCTRYAMGWYRQAPGKERELVATITGGGRTNYADSVKGRFTISRDNAKNTVYLQMNSLKPEDTADYYCNAKYRVYWGSGKFDYWGQGSQVTVSS | high polyreactivity
QVQLVESGGGLVQAGGSLRLSCAASGFTCTYYAMGWYRQAPGKERELVAAITRGGITNYADSVKGRFTISRDNAKNTVYLQMNSLKPEDTAVYYCAADYWNFNWRYKLYRPYDYWGQGTQVTVSS | high polyreactivity
QVQLVESGGGLVQAGGSLRLSCAASGFTFAFNAMGWYRQAPGKERELVAAISGTVSRTRYADSVKGRFTISRDNAKNTVYLQMNSLKPEDTAVYYCAARGYYRYSYPYQPYRMDYWGQGTQVTVSS | high polyreactivity
QVQLVESGGGLVQAGGSLRLSCAASGFTFAGNAMGWYRQAPGKERELVAGISRRGGNTYYADSVKGRFTISRDNAKNTVYLQMISLKPEDTAVYYCAARARRRYYYWGQGTQVTVSS | high polyreactivity
QVQLVESGGGLVQAGGSLRLSCAASGFTFAGYAMGWYRQAPGKERELVAAISYSGGRTYYADSVKGRFTISRDNEKNTVYLQMNSLKPEDTAVYYCNADPAYYRGYYRQGYDYWGQGTQVTVSS | high polyreactivity
QVQLVESGGGLVQAGGSLRLSCAASGFTFAGYAMGWYRQAPGKERELVAGIRSSGARTYYADSVKGRFTISRDNAKNTVYLQMNSLKPEDTAVYYCAKTDGFYRGYGYWGQGTQVTVSS | low polyreactivity
QVQLVESGGGLVQAGGSLRLSCAASGFTFAKNAMGWYRPAPGKERELVATISRSGGSTYYADSVKGRFTISRDNAKNTVYLQMNSLKPEDTAVYDCAADRSYGVLGNEGGYWGQGTQVTVSS | high polyreactivity
QVQLVESGGGLVQAGGSLRLSCAASGFTFAKYVMGWYRQAPGKERELVAAISFSGGSTYYADSVKGRFTISRDNAKNTVYLQMNSLKPEDTAVYYCAALSDSRWHRFGYWGQGTQVTVSS | high polyreactivity

Sequence | polyreactivity (PSR sort gate)
QVQLVESGGGLVQAGGSLRLSCAASGFTFAMNAMGWYRQAPGKERELVAAITFSGGSTYADSVKGRFTISRDNAKNTVYLQMNSLKPEDTAVYYCNAGGDGVATGYDYWGQGTQVTVSS | low polyreactivity
QVQLVESGGGLVQAGGSLRLSCAASGFTFANPMGWYRQAPGKERELVAAISSGGGSTYYADSVKGRFTISRDNAKNTVYLQMNSLKPEDTAVYYCAAGYGTLDWWEDYWGQGTQVTVSS | high polyreactivity
QVQLVESGGGLVQAGGSLRLSCAASGFTFANYVMGWSRQAPGKERELVAAITTPGGSTSYADSVKGRFTISRDNAKNTVYLQMNSLKPEDTAVYYCNKTTYYPSDYDYWGQGTQETVSS | low polyreactivity
QVQLVESGGGLVQAGGSLRLSCAASGFTFARYAMGWYIQAPGKERELVASISGSGESTYYADSVKGRFTISRDNAKNTVYLQMNSLKPEDTAVYYCAAEGSFLFFSWYWPEYDYWGQGTQVTVSS | high polyreactivity
QVQLVESGGGLVQAGGSLRLSCAASGFTFARYAMGWYRQAPGKERELVAAISWTGARTYYADSVKGRFTISRDNAKNTVYLQMNSLKPEDTAVYYCNAVSGSSNFDYWGQGTQVTVSS | high polyreactivity
QVQLVESGGGLVQAGGSLRLSCAASGFTFARYTRVWSRQAPGKERELVAAISKRGTSTYYADSVKGRFTISRDNAQNTVYLQMNSLKAEDTAVYYCAATPGTGYGDYDYWGQGTQVTVSS | high polyreactivity
QVQLVESGGGLVQAGGSLRLSCAASGFTFARYVMGWSRQAPGKERELVAGITYRVGSTYYADSVKGRFSISRDNAKNTVYLQMNSLKPEDTAVYYCAAYLSTGYYYWGQGTQVTVSS | high polyreactivity
QVQLVESGGGLVQAGGSLRLSCAASGFTFASNAMGWYRQAPWKERELDAGISRTGTTTYYADSVKGRFTISRDNAKNTVYLQMNSLKPEDTAVYYCAASKQAVKYRSQRYYYWGQGTQVTVSS | high polyreactivity
QVQLVESGGGLVQAGGSLRLSCAASGFTFASYAMGCYIQPPGKEMELVAAITWSGGSTYYADSVKGRFTISRDNAKNTVYLQMNSLKPEDTAVYYCNALVIARNIEMDYWGQGTQVTVSS | high polyreactivity
QVQLVESGGGLVQAGGSLRLSCAASGFTFASYAMGWYRQAPGKERELVAAITRRGGSTNYADSVKGRFTISRDNAKNTVFLQMNSLKPEDTAVYYCNALHGVWYPAYDYWGQGTQVTVSS | low polyreactivity
QVQLVESGGGLVQAGGSLRLSCAASGFTFAVYAMGWYRQAPGKERELVAAISRSGTRTYYADSVKGRFTISRDNAKNTVFLQMNSLKPEDTAVYYCAADKYRHGYDYWGQGTQVTVSS | low polyreactivity
QVQLVESGGGLVQAGGSLRLSCAASGFTFAWYAMGWYRQAPGKERELVAAISWSGGRTYYADSVKGRFTISRDNAKNTVYLQMNSLKPEDTAVYYCAALFLYGYVREYDYWGQGTQVTVSS | high polyreactivity
QVQLVESGGGLVQAGGSLRLSCAASGFTFAYIAMGWYRQAPGKERELVAAITVSGGRTYYADTVKGRFTISRDNAKNTVYLQMYSLKPEDTAVYYCAATVRVRTNSWMDYWGQGTQVTVSS | low polyreactivity
QVQLVESGGGLVQAGGSLRLSCAASGFTFAYYAMGWYRPAPGKERELVAAISSGGSTDYADSVKGRFTISRDNAKNTVYLQMNSLKPEDTAVYYCNAVVVRLWYDYDYWGQGTQVTVSS | low polyreactivity
QVQLVESGGGLVQAGGSLRLSCAASGFTFAYYAMGWYRQAPGKERELVAAISSGGGTYYADSVKGRFTISRDNAKNTVYLQMNSLKPEDTAVYYCNAANGRYIGSRYVVYTGFYYWGQGTQVTVSS | high polyreactivity
QVQLVESGGGLVQAGGSLRLSCAASGFTFAYYAMGWYRQAPGKERELVATITSGGRTYYADSVKGRFTISSDNAKNTVYLQMNSLKPEDTAVYYCAATGRSGVLSSYYYWGQGTQVTVSS | high polyreactivity
QVQLVESGGGLVQAGGSLRLSCAASGFTFAYYAMGWYRQAPRKESELVAGISWRGGRTYYADSVKGRFTISRDNAKNTVYLQMNSLKPEDTAVYYCAKQPGNFGRFDYWGQGTQVTVSS | high polyreactivity
QVQLVESGGGLVQAGGSLRLSCAASGFTFDDNAMGWYRQAPGKERELVATISYSDGNTYYADSVKGRFTISRDNAKNTVYLQMNSLIPEDTAVYYCAADDWAVYYIGLDYDYWGQGTQVTVSS | low polyreactivity
QVQLVESGGGLVQAGGSLRLSCAASGFTFDDNAMGWYRQAPGKERELVATISYSDGNTYYADSVKGRFTISRDNAKNTVYLQMNSLKPEDTAVYYCAADEWAVYYIGLDYDYWGQGTQVTVSS | low polyreactivity
QVQLVESGGGLVQAGGSLRLSCAASGFTFDENAMGWYRQAPGINYSGASTYYADSVKGRFTISRDNAKNTVYLQMNSLKADDTAVYYCAAEVVAQMNYWGQGTQVTVSS | low polyreactivity
QVQLVESGGGLVQAGGSLRLSCAASGFTFDENAMGWYRQAPGINYSGASTYYADSVMGRFTFSRDNAKNTVYLQMNSLKPEDTAVYYCAAEVVAQMNYWGQGTQVTVSS | low polyreactivity
